Experimental data as given in publication PMC11101737.

B1: GRE (dsDNA)
DNA 1: CTAGGCTGTACAGGATGTTCTGCCTAG
DNA 2: CTAGGCAGAACATCCTGTACAGCCTAG
B2: AAV2 D-sequence (D) (dsDNA)
DNA 1: CTCCATCACTAGGGGTTCCT
DNA 2: AGGAACCCCTAGTGATGGAG

Target: glucocorticoid receptor (GR) (UniProt P04150 1-777)
Experiment: EMSA

glucocorticoid receptor (GR), sequence (P04150 whole entry): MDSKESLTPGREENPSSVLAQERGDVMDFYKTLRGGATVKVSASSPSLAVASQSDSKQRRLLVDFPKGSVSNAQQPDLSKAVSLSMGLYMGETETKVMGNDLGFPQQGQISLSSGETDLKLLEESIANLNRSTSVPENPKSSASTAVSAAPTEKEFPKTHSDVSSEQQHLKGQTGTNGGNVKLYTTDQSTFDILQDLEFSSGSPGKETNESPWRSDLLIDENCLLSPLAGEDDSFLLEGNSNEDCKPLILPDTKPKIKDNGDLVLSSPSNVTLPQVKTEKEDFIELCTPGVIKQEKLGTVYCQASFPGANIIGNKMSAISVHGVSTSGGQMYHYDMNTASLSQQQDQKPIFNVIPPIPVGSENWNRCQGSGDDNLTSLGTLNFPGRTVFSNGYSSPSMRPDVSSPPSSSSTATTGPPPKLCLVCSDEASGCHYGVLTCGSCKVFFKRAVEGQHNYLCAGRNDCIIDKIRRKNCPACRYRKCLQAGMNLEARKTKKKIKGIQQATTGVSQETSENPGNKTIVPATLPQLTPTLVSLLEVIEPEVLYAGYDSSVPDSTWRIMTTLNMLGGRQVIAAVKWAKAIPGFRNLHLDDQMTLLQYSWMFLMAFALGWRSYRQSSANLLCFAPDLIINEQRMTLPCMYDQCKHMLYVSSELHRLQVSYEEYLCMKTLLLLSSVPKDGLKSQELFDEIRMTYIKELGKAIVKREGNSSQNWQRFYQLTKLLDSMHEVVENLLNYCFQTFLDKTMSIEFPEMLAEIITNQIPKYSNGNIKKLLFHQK

Row | Binder | binding result
1 | B1 | binds
2 | B2 | binds
